Data taken from US12415868 (MINERVA BIOTECHNOLOGIES, dated 2025).
One block for each binder: values may come before it.

Legend:
recombinant human NME7AB [1] = target: T1, recombinant human NME7AB (human, UniProt Q9Y5B8 92-376); test: ELISA sandwich assay, HRP signal (FIG. 1A-1B)
T1 construct: also called NME-AB; NME7 (in several passages)
T1 sequence: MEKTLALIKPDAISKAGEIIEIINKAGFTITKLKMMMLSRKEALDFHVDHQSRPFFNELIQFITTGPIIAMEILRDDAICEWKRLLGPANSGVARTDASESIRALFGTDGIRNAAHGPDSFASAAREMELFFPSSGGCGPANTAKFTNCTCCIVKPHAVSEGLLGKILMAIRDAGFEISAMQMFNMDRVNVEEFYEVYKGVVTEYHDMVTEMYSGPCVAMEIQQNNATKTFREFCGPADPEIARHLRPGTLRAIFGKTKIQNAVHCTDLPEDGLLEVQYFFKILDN
Procedure: Example 3—ELISA Assay Showing NME7$AB$ Simultaneously Binds to Two MUC1* Extra Cellular Domain Peptides Results are shown in FIG. 1. The PSMGFR peptide bearing a C-terminal Cysteine (PSMGFR-Cys) was covalently coupled to BSA using Imject Maleimide activated BSA kit (Thermo Fisher). PSMGFR-Cys coupled BSA was diluted to 10 ug/mL in 0.1M carbonate/bicarbonate buffer pH 9.6 and 50 uL was added to each well of a 96 well plate. After overnight incubation at 4° C., the plate was washed twice with PBS-T and a 3% BSA solution was added to block remaining binding site on the well. After 1 h at RT the plate was washed twice with PBS-T and NME7, diluted in PBS-T+1% BSA, was added at different concentrations. After 1h at RT the plate was washed 3× with PBS-T and anti-NM23-H7 (B-9). Santa Cruz. […] After 1 h at RT the plate was washed 3× with PBS-T and binding of NME7 was measured at 415 nm using ABTS solution (Pierce).
After 1 h at RT the plate was washed 3× with PBS-T and His-Tagged PSMGFR peptide (PSMGFR-His) or biotinylated PSMGFR peptide (PSMGFR-biotin), diluted in PBS-T+1% BSA, was added at different concentration. […] After 1 h at RT the plate was washed 3× with PBS-T and binding of PSMGFR peptide to NME7 already bound to another PSMGFR peptide (which could not signal by anti-His antibody or by streptavidin) coupled BSA was measured at 415 nm using a ABTS solution (Pierce).

recombinant human NME7AB [2] = target: T1, recombinant human NME7AB; test: ELISA, plate coated with recombinant NME7AB (FIG. 24)
Procedure: The surface of the multi-well plate was coated with a recombinant $NME7AB$. Anti-$NME7AB$ antibodies were separately added to wells. Standard washes were performed and visualized by adding an HRP-conjugated secondary antibody. […] 7 of the 10 new anti-NME7 antibodies bound strongly to NME7$AB$. […] The surface of the multi-well plate was coated with a recombinant NME1-S120G dimers, which are also known to bind to the MUC1* extra cellular domain. Anti-NME7$AB$ antibodies were separately added to wells. Standard washes were performed and visualized by adding an HRP-conjugated secondary antibody.

binding result (recombinant human NME7AB [1]): binds
B1: PSMGFR peptide (MUC1* extra cellular domain peptide) (peptide)
peptide: GTINVHDVETQFNQYKTEAASRYNLTISDVSVSDVPFPFSAQSGA
notes: For the other ELISAs only surface-immobilized peptide is stated; also called MUC1* peptide; FLR

binding result (recombinant human NME7AB [2]): binds
B2: anti-NME7 monoclonal antibody 8F9A5A1 (antibody, V domains shown)
VH: IQLVQSGPELKKPGETVKISCKASGYTFTNYGMNWVKQAPGKGLKWMGWINTYTGEPTYVDDFKGRFAFSLETSATTAYLQINNLKNEDTSTYFCARLRGIRPGPLAYWGQGTLVTVSA
VL: EILLTQSPAIIAASPGEKVTITCSASSSVSYMNWYQQKPGSSPKIWIYGISNLASGVPARFSGSGSGTSFSFTINSMEAEDVATYYCQQRSSYPPTFGGGTKLEIKR
notes: Mouse monoclonal
